According to patent publication US20250304675A1 (MHS CARE INNOVATION, published 2025):
Substitutions are numbered along the chain they refer to.

Columns and labels:
[1] = target: human gastric inhibitory polypeptide (glucose-dependent insulinotropic polypeptide) (human)
[2] = target: T1, human gastric inhibitory polypeptide (glucose-dependent insulinotropic polypeptide) (human); test: direct binding ELISA, CHO supernate on coated human GIP; 3rd of 10 in the printed order
T1 construct: also called human GIP; hGIP
T1 peptide: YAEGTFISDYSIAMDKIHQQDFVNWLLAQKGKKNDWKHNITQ
Description: (§1) CHO cells co-transfected with the mammalian expression vectors were grown in culture and the supernate collected. The supernate was evaluated for the presence of GIP-binding mAbs by direct binding ELISA Human GIP was fixed to the bottom of the wells on 96-well plates. Serial dilutions of the supernate were added to different wells of the 96-well plate. After a one hour incubation, the wells were washed twice with PBS before a secondary antibody that specifically binds to human IgG was added to each well. The antibody that specifically binds to human IgG was conjugated with the enzyme horse radish peroxidase (HRP). After incubation for one hour, the wells were washed with PBS before the HRP substrate was added. If HRP was present in a well, the substrate was converted to a colored compound. The amount of color intensity was read using a spectrophotometer. The amount of color produced was proportional to the amount of HRP-antibody conjugate remaining in each well. The amount of color produced was also proportional to the amount of mAb bound to hGIP in each well.

[3] = target: T1, human gastric inhibitory polypeptide …; test: direct binding ELISA, CHO supernate on coated human GIP; 6th of 10 in the printed order
Description: as §1

[4] = target: T1, human gastric inhibitory polypeptide …; test: direct binding ELISA, CHO supernate on coated human GIP; 10th of 10 in the printed order
Description: as §1

[5] = target: T1, human gastric inhibitory polypeptide …; test: direct binding ELISA, CHO supernate on coated human GIP; 9th of 10 in the printed order
Description: as §1

[6] = target: T2, gastric inhibitory polypeptide (GIP), species not stated at the place of the result (Homo sapiens (Human), UniProt P09681 52-93); test: modified Schild's assay plot, reporter cell line expressing GIP receptors (derived from a functional assay)
T2 peptide: T1 peptide

[7] = target: T1, human gastric inhibitory polypeptide …; test: direct binding ELISA, CHO supernate on coated human GIP; 4th of 10 in the printed order
Description: as §1

[8] = target: T1, human gastric inhibitory polypeptide …; test: direct binding ELISA, CHO supernate on coated human GIP; 7th of 10 in the printed order
Description: as §1

[9] = target: T2, gastric inhibitory polypeptide (GIP), …; test: hybridoma screening; assay not further stated

Fc
Relative Activity (beta-galactosidase of LGIPR3a reporter cells expressing rat GIPR; Fc mixed with 0.1 nM hGIP; bar as high as that of GIP alone, 0.098, so no neutralization) [1]: 0.105

B1: LC3/HC2 humanized antibody (antibody, V domains shown)
VH: QVQLVQSGAEVKKPGATVKISCKASGFNIRDYYLHWVQQAPGKGLEWMGWIDPENGDTEYAPKFQGRVTITADTSTNTAYMELSSLRSEDTAVYYCNVYGIYFMDYWGQGTMVTVSS
VL: DIQMTQSPGTLSLSPGERATLSCRASSSISSNSLHWYQQKPGQAPRLLIYRTSNRATGIPARFSGSGSGTDYTLTISSLEPEDFAVYYCQQGSSFPRMLTFGGGTKVEIKR
notes: Tested as CHO supernate
binding result [2]: binds

B2: LC3/HC1 humanized antibody (antibody, V domains shown)
VH: B1 VH with A24V, N77D
VL: B1 VL
notes: Tested as CHO supernate
binding result [3]: binds

B3: LC3/HC3 humanized antibody (antibody, V domains shown)
VH: QVQLQESGAEVKKPGASVKVSCKASGFNIRDYYLHWVRQAPGQGLEWMGWIDPENGDTEYAPKFQGRVTTTADTSISTAYMELSRLRSDDTAVYYCNVYGIYFMDYWGQGTLVTVSS
VL: B1 VL
notes: Tested as CHO supernate
binding result [4]: binds

B4: LC1/HC3 humanized antibody (antibody, V domains shown)
VH: B3 VH
VL: DIQMTQSPSSVSASVGDRVTITCRASSSISSNSLHWYQQKPGKAPKLLIYRTSSLQSGVPSRFSGSGSGTDYTLTISSLQPEDFATYYCQQGSSFPRMLTFGQGTKLEIKR
notes: Tested as CHO supernate
binding result [5]: binds

B5: LC2/HC2 humanized antibody (antibody, V domains shown)
VH: B1 VH
VL: B4 VL with M4L, S54N
notes: CHO supernate in the ELISA; Protein A purified in the neutralization assay; also called mAbH; GIP mAbH
Kd [6]: 2200 nM

B6: LC1/HC2 humanized antibody (antibody, V domains shown)
VH: B1 VH
VL: B4 VL
notes: Tested as CHO supernate
binding result [7]: binds

B7: LC1/HC1 humanized antibody (antibody, V domains shown)
VH: B1 VH with A24V, N77D
VL: B4 VL
notes: Tested as CHO supernate
binding result [8]: binds

B8: 14B9 antibody (antibody, V domains shown)
VH: QVQLQESGAALVRSGASVKLSCTASGFNIKDYYFHWVKQRPDQGLEWIGWIDPENGDTEYAPNFQVKATMTADTYSNTAYLHLSSLTSEDTAVYYCNSYGNNYFDYWGQGTTVTVSS
VL: DIQLTQSPAIMAASLGQKVTMTCSASSSVSSSYLHWYQQKSGASPKSLIHRTSNLASGVPARFSGSGSGTSYSLTISSVEAEDDATYYCLQWSGFPFTFGSGTKLEIKR
notes: Comparison antibody
binding result [9]: no binding

B9: 10g10 monoclonal antibody (original mouse mAb) (antibody, V domains shown)
VH: QVQLQESGAELVRSGASVKLSCTASGFNIRDYYLHWIKQRPEQGLEWIGWIDPENGDTEYAPKFQDKATVTADTSSNTAYLQLNSLTSEDTAVYYCNVYGIYFMDYWGQGTTVTVSS
VL: DIQLTQSPSTMAASPGEKITITCSASSSISSNSLHWYQQKPGFSPKLLIYRTSNLASGVPGRFSGSGSGTSYSLTIGTMETEDVATYYCQQGSSFPRMLTFGTGTKLEIKR
notes: Mouse hybridoma antibody; also called 10g10 mAb; 10g10 GIP mAb
Kd [6]: 3200 nM
